Experimental data from US20180044653A1, “Mutant Yeast Strain Capable of Degrading Cellobiose” (Institut National de la Recherche Agronomique, priority 2015, published 2018).

Key:
Test in all cases: Enzyme kinetics on glycoside substrates, released glucose, Michaelis-Menten (Bgl1-His6)
Type in all cases: biochemical, Yarrowia lipolytica
Settings in all cases: other: apparent, 0.120 nM Bgl1-His6, mean of three experiments, SD below 10%, pH 7.4, 28.0 °C
[1] = substrate: CCCCCCCCO[C@@H]1O[C@H](CO)[C@@H](O)[C@H](O)[C@H]1O
Method: (§1) Y. lipolytica JMY1212 overproducing Bgl1-His6 and Bgl2 were grown in 200 mL YTD medium at 130 rpm, 28° C. for 36 h before centrifugation at 8,000×g for 5 min. For purification of Bgl1-His6, the cell pellet was washed, suspended in 50 mL phosphate buffer (50 mM, pH 7.4) and homogenized over a 3-min period using a MP FastPrep-24 Instrument. After centrifugation (8,000×g for 5 min at 4° C.), the supernatant was applied to 2 mL of TALON Metal Affinity Resin (Clontech Takara-Bio, Kyoto, Japan) and protein was eluted using imidazole buffer according to the manufacturer's instructions.
(§2) When using aryl-substrates, the standard assay method was employed, simply replacing pNPGlc by another substrate as appropriate. For oligosaccharides, the release of glucose was quantified using an enzyme kit (D-Fructose/D-Glucose Assay Kit, liquid stable, Megazyme). […] Initial rates were fitted to the Michaelis-Menten kinetic equation using a nonlinear regression (SigmaPlot 10) to extract the apparent KM and kcat (Segel, 1993).

[2] = substrate: OC[C@H]1O[C@@H](OC[C@H]2OC(O)[C@H](O)[C@@H](O)[C@@H]2O)[C@H](O)[C@@H](O)[C@@H]1O
Method: as §1, §2

[3] = substrate: OC[C@H]1O[C@@H](O[C@H]2C(O)O[C@H](CO)[C@@H](O)[C@@H]2O)[C@H](O)[C@@H](O)[C@@H]1O
Method: as §1, §2

[4] = substrate: OC[C@H]1O[C@@H](O[C@H]2[C@H](O)[C@@H](CO)OC(O)[C@@H]2O)[C@H](O)[C@@H](O)[C@@H]1O
Method: as §1, §2

[5] = substrate: OC[C@H]1O[C@@H](O[C@H]2[C@H](O)[C@@H](O)C(O)O[C@@H]2CO)[C@H](O)[C@@H](O)[C@@H]1O
Method: as §1, §2

[6] = substrate: OC[C@H]1O[C@@H](O[C@H]2[C@H](O)[C@@H](O)[C@H](O[C@H]3[C@H](O)[C@@H](O)C(O)O[C@@H]3CO)O[C@@H]2CO)[C@H](O)[C@@H](O)[C@@H]1O
Method: as §1, §2

[7] = substrate: OC[C@H]1O[C@@H](O[C@H]2[C@H](O)[C@@H](O)[C@H](O[C@H]3[C@H](O)[C@@H](O)[C@H](O[C@H]4[C@H](O)[C@@H](O)C(O)O[C@@H]4CO)O[C@@H]3CO)O[C@@H]2CO)[C@H](O)[C@@H](O)[C@@H]1O
Method: as §1, §2

[8] = substrate: OC[C@H]1O[C@@H](O[C@H]2[C@H](O)[C@@H](O)[C@H](O[C@H]3[C@H](O)[C@@H](O)[C@H](O[C@H]4[C@H](O)[C@@H](O)[C@H](O[C@H]5[C@H](O)[C@@H](O)C(O)O[C@@H]5CO)O[C@@H]4CO)O[C@@H]3CO)O[C@@H]2CO)[C@H](O)[C@@H](O)[C@@H]1O
Method: as §1, §2

[9] = substrate: OC[C@H]1O[C@@H](O[C@H]2[C@H](O)[C@@H](O)[C@H](O[C@H]3[C@H](O)[C@@H](O)[C@H](O[C@H]4[C@H](O)[C@@H](O)[C@H](O[C@H]5[C@H](O)[C@@H](O)[C@H](O[C@H]6[C@H](O)[C@@H](O)C(O)O[C@@H]6CO)O[C@@H]5CO)O[C@@H]4CO)O[C@@H]3CO)O[C@@H]2CO)[C@H](O)[C@@H](O)[C@@H]1O
Method: as §1, §2

B1: Yarrowia lipolytica β-glucosidase Bgl1-His6 (YALI_BGL1, YALI0F16027g, SEQ ID NO: 4; mature SEQ ID NO: 1), His6-tagged (Yarrowia lipolytica CLIB122) (protein)
chain: SPDWYPTPEIGSITSDWADALGESMDILAQLTLPEKVNITTGTGWRGGQCVGNTGAVPRLGIKGLCLQDGPLGVRFADFVNVFPCQNAMAATFDRILVHQRGTAIGRQSRLKGVDVHLGPVVGPLGRHATGGRNWEGFSPDPYLSGKLAFEAILGVQEEGVLATIKHFIGNEQEHYRRAEEWRDGFGFKDLKDAVSSNIEDRALHELYMWPFADAVRANVGSVMCSYNYVNGTQACQNSDLLNGKLKSELGFQGFVMSDWFAQGSGVSNALAGMDMSMPGNDVDELETVFWGEQLTRMVANGTLPEARLDDMVLRILTPLIYFGIDDRTPNFSSFVDTTVGSPHPAAKHSKKVKDVITNYHLDVRDQFAANVALDSARGAVVLLFNDGILPLKNISAIGVFGVGSRLGPNGAVCGENMQCSDGALIEGWGSGTAYPTEYESPYEALHKKASLLEVSVTGTTESWDMRLPLELAGDTDVNIVYVLANSGESTANVDKNLGDRRNVSLWHNGDELINTVASQGQTVVVVTTVGQVDMTAWLNHPNISAVLLTAPAGDYGGKAIADVLFGEVNPSGKLPYTIAANTSDYIPIVTKIPRDGAPQSDFVEGIYLDYKWYDKFERTPLYEFGYGLSYTTYSFSNLHLDVKEISEFLPPRPVPVQVTKPKMTNIDIEDLYVPNDFKMIDGLVYPWILNASAPLADSQTQFPFANGAGHVSDASGGVGGHPWLWSNAVTVTHNTTNCGDVAGRVVSQLYVAFPETLIDSPPVQLRGFDKSKLLNPGESQMTEYNLNWRDLAIWDVELQSWRVQRGEYSVYIGHSSREFELCETFTL
- Km [1]: 860 µM
- kcat [1]: 32.8 s⁻¹
- kcat/Km [1]: 38100 M⁻¹ s⁻¹
- Km [2]: 1160 µM
- kcat [2]: 43.6 s⁻¹
- kcat/Km [2]: 37600 M⁻¹ s⁻¹
- Km [3]: 2250 µM
- kcat [3]: 28.4 s⁻¹
- kcat/Km [3]: 14800 M⁻¹ s⁻¹
- Km [4]: 680 µM
- kcat [4]: 75.6 s⁻¹
- kcat/Km [4]: 111000 M⁻¹ s⁻¹
- Km [5]: 260 µM
- kcat [5]: 21.1 s⁻¹
- kcat/Km [5]: 81100 M⁻¹ s⁻¹
- Km [6]: 430 µM
- kcat [6]: 20.5 s⁻¹
- kcat/Km [6]: 47700 M⁻¹ s⁻¹
- Km [7]: 1890 µM
- kcat [7]: 30.9 s⁻¹
- kcat/Km [7]: 16300 M⁻¹ s⁻¹
- Km [8]: 2180 µM
- kcat [8]: 29.5 s⁻¹
- kcat/Km [8]: 13500 M⁻¹ s⁻¹
- Km [9]: 3010 µM
- kcat [9]: 31.5 s⁻¹
- kcat/Km [9]: 10500 M⁻¹ s⁻¹
